Experimental data taken from patent US20140315251A1 (ZOETIS SERVICES, published 2014).

Tests used:
[1] = target: T1, feline IL-31 full-length construct for E. coli expression (feline); assay: Western blot under reducing conditions, purified protein from mammalian and E. coli sources
T1 construct: Purified from E. coli under denaturing conditions and dialysed; also called feline IL-31 protein
T1 chain: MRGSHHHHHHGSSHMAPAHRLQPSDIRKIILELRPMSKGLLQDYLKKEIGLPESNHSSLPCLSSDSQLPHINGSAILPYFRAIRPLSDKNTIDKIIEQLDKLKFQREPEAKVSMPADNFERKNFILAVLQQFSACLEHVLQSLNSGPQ

[2] = target: T2, canine IL-31 with double alanine substitution (D82A, I85A) (canine); assay: Western blot of E. coli lysates
T2 construct: The -20N backbone is stated for the alanine scan and -20N was the control on this blot; also called double mutation
Text: (§1) To examine the impact of multiple mutations in the region of IL-31 important for binding to the 11E12 and 34D03 antibodies, expression plasmids were constructed with double (D82A, […]) and triple (I81A, D82A, I85A) alanine substitutions. E. coli lysates expressing canine IL-31 with these double and triple mutations in addition to the −20N control were blotted with 11E12 and 34D03 antibodies (FIG. 16). It is apparent that these three amino acids on canine IL-31 are involved with recognition of 11E12 and 34D03 as complete abrogation of binding is observed when these sites are changed to alanine. These three amino acids correspond to amino acid residues 103, 104 and 107 of the canine IL-31 full-length protein sequence of SEQ ID NO: 32.

[3] = target: T3, canine IL-31 with triple alanine substitution (I81A, D82A, I85A) (canine); assay: Western blot of E. coli lysates
T3 construct: Positions count on the full-length E. coli construct; also called triple mutation
Text: as §1

[4] = target: T4, canine IL-31 -20N construct (canine); assay: Western blot of crude E. coli lysates
T4 construct: Crude E. coli lysate on Western blot; also called N-terminal truncation -20N; -20N protein
Method: (§2) It was observed that the full length IL-31 protein was expressed very poorly. […] Antibodies 11E12 and 34D03 all bound to the −20N protein. Therefore, further work was carried out using this −20 N construct. Constructs representing C-terminal truncations at positions 20-122 (MW 15.3 with his tag), 20-100 (MW 12.9 with his tag), and 20-80 (MW 10.4 with his tag), were made to assess mAb binding to these areas on the IL-31 protein. The amino acid and nucleotide sequences corresponding to the 20-122 construct are SEQ ID NOs: 63 and 64, respectively. The amino acid and nucleotide sequences corresponding to the 20-100 construct are SEQ ID NOs: 65 and 66, respectively. The amino acid and nucleotide sequences corresponding to the 20-80 construct are SEQ ID NOs: 67 and 68, respectively. […] This region corresponds to amino acid Nos. between amino acid residues 102 and 122 of the canine IL-31 full-length protein sequence of SEQ ID NO: 32. […] In addition, the pET101D-lacZ protein was used as a control to confirm the lack of non-specific binding of mAbs to host proteins.

[5] = target: T5, canine IL-31 -40N construct (canine); assay: Western blot of crude E. coli lysates
T5 construct: Crude E. coli lysate on Western blot; also called N-terminal truncation -40N
Method: as §2

[6] = target: T6, canine IL-31 -60N construct (canine); assay: Western blot of crude E. coli lysates
T6 construct: Crude E. coli lysate on Western blot; also called N-terminal truncation -60N
Method: as §2

[7] = target: T7, canine IL-31 20-122 construct (canine); assay: Western blot of crude E. coli lysates
T7 construct: also called C-terminal truncation at positions 20-122
T7 chain: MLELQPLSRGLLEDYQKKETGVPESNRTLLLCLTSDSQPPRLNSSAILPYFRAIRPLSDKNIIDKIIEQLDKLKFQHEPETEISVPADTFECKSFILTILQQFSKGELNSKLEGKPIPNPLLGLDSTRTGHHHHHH
Method: as §2

[8] = target: T8, canine IL-31 20-100 construct (canine); assay: Western blot of crude E. coli lysates
T8 construct: The range counts on the full-length E. coli construct; also called C-terminal truncation at positions 20-100
Method: as §2

[9] = target: T9, canine IL-31 20-80 construct (canine); assay: Western blot of crude E. coli lysates
T9 construct: The range counts on the full-length E. coli construct; also called C-terminal truncation at positions 20-80
T9 chain: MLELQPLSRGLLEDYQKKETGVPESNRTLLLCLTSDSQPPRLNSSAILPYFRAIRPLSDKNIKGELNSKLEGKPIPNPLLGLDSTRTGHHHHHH
Method: as §2

pET101D-lacZ protein = target: T10, pET101D-lacZ protein (UniProt P00722 1-1024 = β-galactosidase, limits assumed); assay: Western blot of crude E. coli lysates
T10 construct: Control lane on the truncation blots; also called beta-galactosidase (lacZ)
Method: as §2

[10] = target: T11, canine IL-31 full-length construct for E. coli expression (canine); assay: Western blot of purified IL-31 proteins
T11 construct: also called canine IL-31 (E. coli)
T11 chain: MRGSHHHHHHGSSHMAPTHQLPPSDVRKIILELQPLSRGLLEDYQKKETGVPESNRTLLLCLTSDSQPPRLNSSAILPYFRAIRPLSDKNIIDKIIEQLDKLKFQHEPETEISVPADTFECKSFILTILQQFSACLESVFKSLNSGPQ

[11] = target: T1, feline IL-31 full-length construct for …; assay: Western blot of purified IL-31 proteins

T10 sequence (P00722 whole entry, the tested form may be a part): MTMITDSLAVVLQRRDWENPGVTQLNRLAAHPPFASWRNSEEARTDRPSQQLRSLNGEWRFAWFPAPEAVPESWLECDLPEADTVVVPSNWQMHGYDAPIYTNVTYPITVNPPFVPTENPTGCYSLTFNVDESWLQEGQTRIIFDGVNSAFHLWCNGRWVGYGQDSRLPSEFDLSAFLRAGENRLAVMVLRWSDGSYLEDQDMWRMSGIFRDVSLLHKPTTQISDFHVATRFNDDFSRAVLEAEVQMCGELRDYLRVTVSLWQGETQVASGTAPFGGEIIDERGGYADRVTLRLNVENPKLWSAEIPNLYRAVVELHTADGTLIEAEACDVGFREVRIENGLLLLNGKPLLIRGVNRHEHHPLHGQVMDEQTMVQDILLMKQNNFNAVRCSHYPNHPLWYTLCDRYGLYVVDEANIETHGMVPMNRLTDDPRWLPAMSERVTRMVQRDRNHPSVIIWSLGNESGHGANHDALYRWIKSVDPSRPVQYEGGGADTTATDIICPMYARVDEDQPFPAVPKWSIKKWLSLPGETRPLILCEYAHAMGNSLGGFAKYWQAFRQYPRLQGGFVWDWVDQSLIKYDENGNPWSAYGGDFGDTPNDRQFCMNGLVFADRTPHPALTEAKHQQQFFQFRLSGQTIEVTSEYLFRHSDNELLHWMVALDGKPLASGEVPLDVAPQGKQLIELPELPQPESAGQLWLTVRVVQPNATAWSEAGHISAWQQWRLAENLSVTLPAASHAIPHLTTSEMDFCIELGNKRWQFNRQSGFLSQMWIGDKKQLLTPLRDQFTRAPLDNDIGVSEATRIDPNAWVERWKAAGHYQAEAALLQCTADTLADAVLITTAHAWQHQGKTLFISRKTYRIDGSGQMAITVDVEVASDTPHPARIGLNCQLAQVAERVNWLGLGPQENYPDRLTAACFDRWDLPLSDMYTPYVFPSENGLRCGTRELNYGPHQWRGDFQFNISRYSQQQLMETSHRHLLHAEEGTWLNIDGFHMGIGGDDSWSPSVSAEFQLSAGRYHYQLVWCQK

B1: Felinized 34D03 (antibody, V domains shown)
VH: DVQLVESGGDLVKPGGSLRLTCVASGFTYSNYGMSWVRQAPGKGLQWVATISYGGSYTYYPDNIKGRFTISRDNAKNTLYLQMNSLKTEDTATYYCVRGYGYDTMDYWGQGTLVTVSS
VL: EIQMTQSPSSLSASPGDRVTITCKASQSVSFAGTGLMHWYQQKPGKVPKLLIYRASNLEAGVPSRFSGSGSGTDFTLTISSLEPEDAATYYCQQSREYPWTFGQGTKLEIKR
notes: Produced from HEK cells; also called feline 34D03; felinized antibody 34D03
B1: binds [1].

B2: Mouse 34D03 (antibody, V domains shown)
VH: EVQLVESGGDLVKPGGSLKLSCAASGFSFSNYGMSWVRQTPDKRLEWVATISYGGSYTYYPDNIKGRFTISRDNAKNTLYLQMSSLKSEDTAMYYCVRGYGYDTMDYWGQGTSVTVSS
VL: DILLTQSPASLAVSLGQRAIISCKASQSVSFAGTGLMHWYQQKPGQQPKLLIYRASNLEAGVPTRFSGSGSRTDFTLNIHPVEEEDAATYFCQQSREYPWTFGGGTKLEIK
notes: Mouse hybridoma monoclonal; also called mAb 34D03; MU-34D03
B2: no binding [2]; no binding [3]; binds [4]. B2: binds [5]; binds [6]; binds [7]. B2: binds [8]; no binding [9]; no binding (pET101D-lacZ protein). B2: binds [10]; binds [11].

B3: Mouse 11E12 (antibody, V domains shown)
VH: QVQLQQSGAELVKPGASVKLSCKASGYTFKYYDINWVRQRPEQGLEWIGWIFPGDGGTKYNETFKGKATLTTDKSSSTAYMQLSRLTSEDSAVYFCARGGTSVIRDAMDYWGQGTSVTVSS
VL: DIVLTQSPASLAVSLGQRATISCRASESVDNYGISFMHWYQQKPGQPPKLLIYRASNLESGIPARFSGSGSRTDFTLTINPVETDDVATYYCQQSNKDPLTFGAGTKLELK
notes: Mouse hybridoma monoclonal; also called mAb 11E12; MU-11E12
B3: no binding (pET101D-lacZ protein); binds [11].
